# Data taken from patent publication US20170052184A1 (published 2017).
# Positions count from the first letter of the chain named.
# T1: HCV Core1-169 (hepatitis C virus (HCV-1), UniProt P26664 1-169)
# T1 sequence: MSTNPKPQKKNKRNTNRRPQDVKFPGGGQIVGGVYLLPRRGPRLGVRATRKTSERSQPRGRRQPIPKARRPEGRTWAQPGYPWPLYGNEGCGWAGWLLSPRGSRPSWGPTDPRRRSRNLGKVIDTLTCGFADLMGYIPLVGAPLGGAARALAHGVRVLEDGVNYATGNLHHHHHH
# B1: HCV 208B-911 (antibody, V domains shown)
# VH: QVHLQQPGAELVRPGVSVKLSCKASGYTFTTYSINWMKQRPGQGLEWIGNIYPSTSHTNYNQKFRDKATMTVDKSSSTAYMQLSSPTSEDSAVYYCTINAYSMDYWGQGTSVTVSS
# VL: QIVLTQSPEIMSASPGEKVTITCSASSSVSFMYWFQQKPGTSPKLWIYITSNLASGVPTRFSGSGSGTSYSLTISRMEAEDAATYYCQQRSSFPYTFGGGTKLEMKR
# B2: HCV 208A-422 (antibody, V domains shown)
# VH: DVQLQESGPGLVNPSQSLSLTCSVTGYSITSGYYWIWIQQSPGNKLEWMGYIKYDGGNNYSPSLKNRISIARDTSKNQCFLKLNSVTIEDTATYYCTRGSDSFDYWGQGTTLTVSS
# VL: DIVLTQSPASLAVSLGQRAIISCKASQSVSFAGTNLMHWYQQKPGQQPKLLIYRASNLETGVPTRFSGSGSRTDFTLNIHPVEEDDAATYYCQQSREYYTFGGGTKLEIKR
# B3: HCV 208A-442 (antibody, V domains shown)
# VH: B2 VH with Q39R, S41F, C79F
# VL: B2 VL
# B4: HCV 208B-793 (antibody, V domains shown)
# VH: EVKLVESGGGLVQPGGSLKLSCAASGFTFSSYAMSWVRQTPERRLEWVTYISNGGGSTYYSDTVKGRFTFSRDNAKNTLYLQMSSLKSEDTAMYYCARHGLGRTGFASWGQGTLVTVSA
# VL: DIVMTQSHKFMSTSVGDRVSITCKASQDVGTAVAWYQQKPGQSPKLLIYWASTRHTGVPDRFTGSGSGTDFTLTISNVQSEDLADYFCQQYSNYLTFGAGTKLEVKR
# B5: HCV 208B-178 (antibody, V domains shown)
# VH: DVKLVESGGGLVKLGGSLKLSCAASGFTFSSYYMSWVRQTPEKRLELVAAINSNGGSTYYPDTVKGRFTISRDNAKNTLYLQMSSLKSEDTALYYCARHGGLGRRDWYFDVWGAGTTVTVSS
# VL: DIVLTQSPASLAVSLGQRATISCRASESVDNYGISFMHWYQQKPGQPPKLLIYRASNLESGIPARFSGSGSRTDFTLTINPVETDDVATYYCQQSNKDPFTFGSGAKLEIKR
# B6: HCV 208B-327 (antibody, V domains shown)
# VH: EVQLVESGGGLVKPGGSLKLSCAASGFTFSDSYMYWVRQTPDQRLEWVATISDGGSYTFYPDSVKGRFTISRDNAQNNLYLQMSSLKSEDTAMYYCASPHAGYFGWFAYWGRGTLVTVSA
# VL: DIVMTQAAFSNPVTPGTSVSISCRSSKSLLHSNGITYLYWYLQKPGQSPQLLIYQMSKIASGVPDRFRSSGSGTDFTLRISRVEAADVGVYYCAQNLELPWTFGGGTKLEIKR
# B7: HCV 208A-210 (antibody, V domains shown)
# VH: QVQLQQSGPELVKPGASMRISCKASGYTFTSYYVHWIKQRPGQGLEWIGCIYPGDVNTDYNEKFKGKATLTADKSSSTAYMQVSTLTSEDSAIYFCVLYYYGSFAYWGQGTLVTVSA
# VL: EIVLTQSPAITAASLGQNVTITCRASSSVSYMHWYRQKSGTSPQLWIYEISRRASGVPARFRASGSGTSYSLTISSMEAEDAAIYYCQQWNYPLTFGAGTKLEVKR
# B8: HCV 208B-517 (antibody, V domains shown)
# VH: QVQLKQSGPGLVQPSQSLSITCTVSGFSLITHGVHWVRQSPGKGLEWLGVIWSGGSTDYNAAFISRLSISKDTSKSQVFLKMSSLQADDTAIYYCARNGGATAFDYWGQGTTLTVSS
# VL: DIVMTQSPATLSVTPGDRVSLSCRASQSISDYLHWYQQKSHESPRLLIKYASQSISGIPSRFRGSGSGSHFTLSINSVEPEDVGVYYCQNGHSFPWTFGGGTKLEIKR
# B9: HCV 208B-822 (antibody, V domains shown)
# VH: QVQLKQSGPGLVQPSQSLSITCTVSGFSLITYGVHWVRQSPGKGLEWLGVIWGGGSTGYNAAFVSRLNITKDNSKSQVFFKMNSLQPDDTAIYYCARNGGATVFDYWGQGTTLTVSS
# VL: B8 VL with S28T, R63S
# B10: HCV 208A-874 (antibody, V domains shown)
# VH: QVQLQQPGAELVKPGASVKLSCKASGYTLSSYWMHWVKQRPGQGLEWIGEIHPSDSYTSYNQKFKDKATLTVDKSSSTAYMQLSSLTSEDSAVYYCARGGYYRYDEFAYWGQGTLVTVSA
# VL: DIVMTQSHKFMSTSIGDRVSITCKASQNVSPAVAWYQQKPGQSPKLLIYSASSRYTGVPDRFTGSGSGTAFTFTISSVQAEDLAVYFCQQHFSTPWTFGGGTMLEIKR
# B11: HCV 208B-826 (antibody, V domains shown)
# VH: DVQLVESGGGLVQAGGSRKLSCAASGFPFSSFGMHWVRQAPEKGLEWVASISSRTSKIYYADNLKGRFTISRDNPKNTLFLQMTSLGSEDTAMYYCVRSVFGNSYWFFDVWGAGTTVTVSS
# VL: DIVLTQSPATLSVTPGDRVSLSCRASQRIYNYLHWYQQKSHESPRLLTKYASQSISGIPSRFSGSGSGTDFILTINSVETEDFGMYFCQQSNSWPLTFGAGTKLELRR
# B12: HCV 208B-515 (antibody, V domains shown)
# VH: QVQLQQPGAELVKPGASLKLSCRASGYTFTSYWIHWVKQRPGQGLEWIGEIDPSDSYTNYNQKFKGKATLTVDKSSRAAYMQLSSLTSEDSAVYYCARHYYGVFDSWGQGTKLTVSS
# VL: QIVFTQYPAIMSASLGERVTMTCTASSSVTSSYLHWFQQKPGSSPKLWIYSTSNPGSGVPARFSGRGSGTSYSLSISSMEAEDAATYYCLQFHRSPWTFGGGTKLEIRR
# B13: HCV 208B-408 (antibody, V domains shown)
# VH: EVKLVESGGGLVQPGGSLRLSCASSGFTFTDYYMSWVRQPPGKALEWLGFIRNKAYGYTTEFSASVNGRFTISRDDSQSVPYLQMNTLRAEDSATYYCARVLYYDYGGFAYWGQGTLVTVST
# VL: DIQMTQSPASLSASVGETVTITCRASGNIHTYLAWYQQKQGKSPQLLVYNANTLADGVPSRFSGSGSGTQFSLKINSLQPDDFGSYYCQHFWSAPWTFGGGTQLEIKR
# What was measured:
# HCV Core1-169 [1] = molecular target: T1, HCV Core1-169; assay: SPR sandwich, capture mAb C11-14
# HCV Core1-169 [2] = molecular target: T1, HCV Core1-169; assay: SPR sandwich, capture mAb C11-7
# HCV Core1-169 [3] = molecular target: T1, HCV Core1-169; assay: SPR sandwich, capture mAb C11-3
# HCV Core1-169 [4] = molecular target: T1, HCV Core1-169; assay: SPR sandwich, capture mAb C11-9
binder,measurement,setting,value
B1,expected percent binding,HCV Core1-169 [1],≤ 1%
same,expected percent binding,HCV Core1-169 [2],≤ 1%
same,expected percent binding,HCV Core1-169 [3],≤ 1%
same,expected percent binding,HCV Core1-169 [4],≤ 1%
B2,expected percent binding,HCV Core1-169 [1],≤ 1%
same,expected percent binding,HCV Core1-169 [2],≤ 1%
same,expected percent binding,HCV Core1-169 [3],≤ 1%
same,expected percent binding,HCV Core1-169 [4],≤ 1%
B3,expected percent binding,HCV Core1-169 [1],≤ 1%
same,expected percent binding,HCV Core1-169 [2],1.6%
same,expected percent binding,HCV Core1-169 [3],≤ 1%
same,expected percent binding,HCV Core1-169 [4],≤ 1%
B4,expected percent binding,HCV Core1-169 [1],≤ 1%
same,expected percent binding,HCV Core1-169 [2],≤ 1%
same,expected percent binding,HCV Core1-169 [3],≤ 1%
same,expected percent binding,HCV Core1-169 [4],≤ 1%
B5,expected percent binding,HCV Core1-169 [1],≤ 1%
same,expected percent binding,HCV Core1-169 [2],1.7%
same,expected percent binding,HCV Core1-169 [3],≤ 1%
same,expected percent binding,HCV Core1-169 [4],≤ 1%
B6,expected percent binding,HCV Core1-169 [1],≤ 1%
same,expected percent binding,HCV Core1-169 [2],≤ 1%
same,expected percent binding,HCV Core1-169 [3],≤ 1%
same,expected percent binding,HCV Core1-169 [4],≤ 1%
B7,expected percent binding,HCV Core1-169 [1],≤ 1%
same,expected percent binding,HCV Core1-169 [2],1.6%
same,expected percent binding,HCV Core1-169 [3],1.2%
same,expected percent binding,HCV Core1-169 [4],≤ 1%
B8,expected percent binding,HCV Core1-169 [1],≤ 1%
same,expected percent binding,HCV Core1-169 [2],≤ 1%
same,expected percent binding,HCV Core1-169 [3],≤ 1%
same,expected percent binding,HCV Core1-169 [4],≤ 1%
B9,expected percent binding,HCV Core1-169 [1],≤ 1%
same,expected percent binding,HCV Core1-169 [2],≤ 1%
same,expected percent binding,HCV Core1-169 [3],≤ 1%
same,expected percent binding,HCV Core1-169 [4],≤ 1%
B10,expected percent binding,HCV Core1-169 [1],≤ 1%
same,expected percent binding,HCV Core1-169 [2],≤ 1%
same,expected percent binding,HCV Core1-169 [3],≤ 1%
same,expected percent binding,HCV Core1-169 [4],≤ 1%
B11,expected percent binding,HCV Core1-169 [1],≤ 1%
same,expected percent binding,HCV Core1-169 [2],≤ 1%
same,expected percent binding,HCV Core1-169 [3],≤ 1%
same,expected percent binding,HCV Core1-169 [4],≤ 1%
B12,expected percent binding,HCV Core1-169 [1],≤ 1%
same,expected percent binding,HCV Core1-169 [2],≤ 1%
same,expected percent binding,HCV Core1-169 [3],≤ 1%
same,expected percent binding,HCV Core1-169 [4],≤ 1%
B13,expected percent binding,HCV Core1-169 [1],≤ 1%
same,expected percent binding,HCV Core1-169 [2],≤ 1%
same,expected percent binding,HCV Core1-169 [3],≤ 1%
same,expected percent binding,HCV Core1-169 [4],≤ 1%
